Reference: US5910570A, “Cloned DNA encoding a UDP-GalNAc: polypeptide N-acetylgalactosaminy-ltransferase” (Pharmacia & Upjohn Company, priority 1997, dated 1999)

T1: bovine colostrum GalNAc-transferase (Bos taurus, UniProt Q07537)
T1 construct: from tissue; host or cells: bovine colostrum
T1 sequence (Q07537 41-559 limits assumed): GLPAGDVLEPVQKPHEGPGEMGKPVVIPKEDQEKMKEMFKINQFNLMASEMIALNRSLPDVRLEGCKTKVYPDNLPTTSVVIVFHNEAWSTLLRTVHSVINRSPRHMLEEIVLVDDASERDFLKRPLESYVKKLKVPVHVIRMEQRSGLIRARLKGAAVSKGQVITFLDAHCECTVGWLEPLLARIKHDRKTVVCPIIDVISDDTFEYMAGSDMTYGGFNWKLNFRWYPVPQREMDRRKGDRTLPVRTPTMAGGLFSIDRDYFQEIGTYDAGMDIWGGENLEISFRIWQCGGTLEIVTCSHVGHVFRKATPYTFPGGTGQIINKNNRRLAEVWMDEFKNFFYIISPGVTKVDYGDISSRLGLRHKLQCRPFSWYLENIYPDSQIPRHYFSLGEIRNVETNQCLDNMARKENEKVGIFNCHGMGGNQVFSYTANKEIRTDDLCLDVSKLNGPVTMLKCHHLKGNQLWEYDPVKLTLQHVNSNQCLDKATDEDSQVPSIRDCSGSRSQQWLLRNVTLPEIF

B1: Subtilisin: bacterial protein tested as acceptor (protein, UniProt P00782 108-382, looked up)
Subtilisin BPN': AQSVPYGVSQIKAPALHSQGYTGSNVKVAVIDSGIDSSHPDLKVAGGASMVPSETNPFQDNNSHGTHVAGTVAALNNSIGVLGVAPSASLYAVKVLGADGSGQYSWIINGIEWAIANNMDVINMSLGGPSGSAALKAAVDKAVASGVVVVAAAGNEGTSGSSSTVGYPGKYPSVIAVGAVDSSNQRASFSSVGPELDVMAPGVSIQSTLPGNKYGAYNGTSMASPHVAGAAALILSKHPNWTNTQVRSSLENTTTKLGDSFYYGKGLINVQAAAQ
B2: GalNAcTs: secreted, soluble recombinant form of bovine GalNAc-transferase expressed in Sf9 cells (protein)
chain: DPSPALEPVQKPHEGPGEMGKPVVIPKEDQEKMKEMFKINQFNLMASEMIALNRSLPDVRLEGCKTKVYPDNLPTTSVVIVFHNEAWSTLLRTVHSVINRSPRHMLEEIVLVDDASERDFLKRPLESYVKKLKVPVHVIRMEQRSGLIRARLKGAAVSKGQVITFLDAHCECTVGWLEPLLARIKHDRKTVVCPIIDVISDDTFEYMAGSDMTYGGFNWKLNFRWYPVPQREMDRRKGDRTLPVRTPTMAGGLFSIDRDYFQEIGTYDAGMDIWGGENLEISFRIWQCGGTLEIVTCSHVGHVFRKATPYTFPGGTGQIINKNNRRLAEVWMDEFKNFFYIISPGVTKVDYGDISSRLGLRHKLQCRPFSWYLENIYPDSQIPRHYFSLGEIRNVETNQCLDNMARKENEKVGIFNCHGMGGNQVFSYTANKEIRTDDLCLDVSKLNGPVTMLKCHHLKGNQLWEYDPVKLTLQHVNSNQCLDKATDEDSQVPSIRDCSGSRSQQWLLRNVTLPEIF
B3: Myelin basic protein: efficient acceptor for GalNAc-transferase, included as a positive control (protein, UniProt P02686 1-304, looked up)
Myelin basic protein: MGNHAGKRELNAEKASTNSETNRGESEKKRNLGELSRTTSEDNEVFGEADANQNNGTSSQDTAVTDSKRTADPKNAWQDAHPADPGSRPHLIRLFSRDAPGREDNTFKDRPSESDELQTIQEDSAATSESLDVMASQKRPSQRHGSKYLATASTMDHARHGFLPRHRDTGILDSIGRFFGGDRGAPKRGSGKDSHHPARTAHYGSLPQKSHGRTQDENPVVHFFKNIVTPRTPPPSQGKGRGLSLSRFSWGAEGQRPGFGYGGRASDYKSAHKGFKGVDAQGTLSKIFKLGGRDSRSGSPMARR
B4: Bovine rhodanese: cytoplasmic protein with predicted glycosylation sites, tested as acceptor (protein)
chain: VHQVLYRALVSTKWLAESVRAGKVGPGLRVLDASWYSPGTREARKEYLERHVPGASFFDIEECRDKASPYEVMLPSEAGFADYVGSLGISNDTHVVVYDGDDLGSFYAPRVWWMFRVFGHRTVSVLNGGFRNWLKEGHPVTSEPSRPEPAIFKATLNRSLLKTYEQVLENLESKRFQLVDSRAQGRYLGTQPEPDAVGLDSGHIRGSVNMPFMNFLTEDGFEKSPEELRAMFEAKKVDLTKPLIATCRKGVTACHIALAAYLCGKPDVAIYDGSWFEWFHRAPPETWVSQGKGGKA

Legend:
[1] = target: T1, bovine colostrum GalNAc-transferase; assay: Transfer of N-acetylgalactosamine to protein acceptors; type: biochemical; settings: for Product formed, Native: native acceptor 65 μM; for Product formed, Native / Product formed, Reduced and carboxymethylated: enzyme approx. 65 mU/ml; for Product formed, Reduced and carboxymethylated: reduced and carboxymethylated acceptor 65 μM
Protocol: The above conclusions and the predictions of the specificity algorithm are validated experimentally by studying the ability of bovine colostrum GalNAc-transferase to transfer N-acetylgalactosamine to a variety of acceptors, both native proteins and synthetic acceptor peptides. The transfer of N-acetylgalactosamine to protein acceptors is assayed as described by Elhammer and Kornfeld, 1986, with minor modifications. The concentration of UDP-GalNAc is saturating in all assays; a Km of 8 μM is reported for bovine colostrum GalNAc-transferase (Elhammer and Kornfeld, 1986).
The transfer of N-acetylgalactosamine to protein acceptors was assayed
under standard conditions (see Material and Methods). The acceptor
concentration was 65 μM, the enzyme concentration approximately 65
mU/ml and assay time was 60 minutes. The transfer to both native and
reduced-carboxymethylated acceptors was assayed.

bovine apomucin = assay: Specific activity of the purified enzyme preparation using bovine apomucin as acceptor; type: biochemical
Protocol: The standard assay for UDP-GalNAc:polypeptide, N-acetylgalactosaminyltransferase activity during purification contained the following components in a final volume of 80 μl: 50 mM Imidazole pH 7.2, 10 mM MnCl2, 0.5% Triton X-100, 15 μM UDP-GalNAc, UDP[1-^3 H-]GalNAc (27,000 cpm/assay), 0.15 mg/ml apomucin and varying amounts of enzyme (see individual experiments). The reaction mixture is incubated at 37° C. for 5-10 minutes (see individual experiments) and the reaction product is TCA precipitated and radioactivity measured as described. Assays for activity in lysates from Spodoptera frugiperda cell line 9 (hereinafter referred to as Sf9 cells) are carried out as described by Thomsen et al., (1990).

Molecule	transfer rate, times slower as compared to myelin basic protein ([1]; denatured (reduced and carboxymethylated) acceptor)	Product formed, Native ([1]; 60 minutes)	Product formed, Reduced and carboxymethylated ([1]; 60 minutes)	specific activity of the purified enzyme preparation (bovine apomucin)	Product formed, column Reduced and carboxymethylated (acceptor not reduced and carboxymethylated in this experiment) ([1]; footnote a: not reduced and carboxymethylated, 65 μM, 60 minutes)
B1	35 times	< 0.1 nmol/min/mg	0.6 nmol/min/mg	–	–
B2	–	–	–	approximately 2,160 U/mg protein	–
B3	–	22.2 nmol/min/mg	–	–	21.3 nmol/min/mg
B4	–	< 0.1 nmol/min/mg	3.3 nmol/min/mg	–	–
